Experimental data published in the DeepSol protein solubility set.

test: soluble on expression in E. coli; label from the status in PepcDB or PDB records

Sequence	soluble on expression in E. coli
MGSDKIHHHHHHMFAERLERARKAAGLSMNALANEVGLSANAIKKYEHGTAMPSSSNLLKLAKALDVRTEYFFRPTKVKLEGVEYRKRASTPKKVLDRINGDVLEQAERWQELLELYPDSVKPIPEFTLPNELPEQITSIEQVEDLAIQMRHAWDLGLNPIHDMIDTLEAKGVMIITTDVETDKKFDGLAGKIGSTPVVVISTAQSGDRQRFTLAHELGHLVVHGRLVEALDEEKACNTFAGAFLLPTQTLIEHLGEKRRHIEPRELLMLKHEYGISMLAALFRAGQCGIITPATQKNLFMLFSKNGWRTEEPGKAYPHESTYLHKQLVYRALGEEYIGESKAAELLGMSVSSFHKERKLEVPIQSQLALEAKGAAASN	not soluble
MGHHHHHHSHMKQTAESIRDRFMKLGIDVPVEDIESRLDELIKKFKVPSNEAQRSVTNYFLKKYSIPKNEFYVRQAEPQLTKIVDIVENGQWANLKAKVIQLWENTHESISQVGLLGDETGIIKFTIWKNAELPLLEQGESYLLRSVVVGEYNDRFQVQVNKNSSIEKLSEPIEVGGGDFTPAAREAELRNIADLTGNQWATVRGKVIQLWENSHESIEQAGLIGDETGVIKFTNWASSELPDMEEGRSYLLKNVVVNEWNGKAQVQLNRSSSIEELDEDIEVRTSMSSYFGAMVDIQTGSGLIKRCPECKRALVKGACAEHGKVKGEYDLRIKAVLDSGTSTQDALINRELTEELSGISLDSAIAMAADALDPGVVLDKLKHELVGRYYTITGHKLDRYILVESITPRTSLDRELLDQMLAEPIAQPEVE	soluble
MGKLVEGVWHDVWYDTKANGGKFVREDAGFRDWIKNDSEAVFQPESGRYHLYVSLACPWAHRTLIFRKLKGLEPHIDVTVVCPDMLSQGWQMGLPEPLFGHTRMHQIYTQAKPDYTGRVTVPVLWDKKTNTIVSNESSEIIRMFNSAFNDLTGNHDDYYPEPLRGVIDEWNDYIYPNVNNGVYRCGFATSQEAYEEAFESLFSALDKIDAHLATHRYLAGNKITEADWRLFTTLVRFDAVYVGHFKCNKQRIADYVNIQGYLKELYQIDGIADTTDFYHVKRHYYFSHTGINPTQVVPKGPDLDFSSPHQREMIG	soluble
AELRSREYAEILKQKQELSLVEAGEFNSLGKRNGRVYFVETFDTESGIMKNLFLREQDKNGGDNIIFAKEGNFSLNDNKRTLELRHGYRYSGTPGRADYNQVSFQKLNLIISTTPKLIDPVSHRRTIPTAQLIGSSNPQHQAELMWR	soluble
MRWVKAGELPMEAAYGATVSLPDRLIFIGGSNSSDRFSSVLSFSFDCMKDSGLICETLPPLPHAVDNMSATLLGDTLYVLGGNRNGIPSSSMFSLCLDNYSAGWTEVPFPGRPRVQPVCSSLLGKLYVFGGFTSGGDASVSTDGLCYHPESGQWQVVKAPLTTKGEPLTLTGGASVSYGDVLLICAGGVNRDIFEDAISARYQMVRESEYLLQPIEWYRFNDQLLAYNVRSGEWIRIGVPSPMLARAGSSLVVFGDILFYIGGELKPGVLEHHHHHH	not soluble
MGSDKIHHHHHHMNVLALDTSQRIRIGLRKGEDLFEISYTGEKKHAEILPVVVKKLLDELDLKVKDLDVVGVGIGPGGLTGLRVGIATVVGLVSPYDIPVAPLNSFEMTAKSCPADGVVLVARRARKGYHYCAVYLKDKGLNPLKEPSVVSDEELEEITKEFSPKIVLKDDLLISPAVLVEESERLFREKKTIHYYEIEPLYLQKSIAELNWEKKKRG	soluble
MGSDKIHHHHHHMAMNDNNINTCRYRVDVPYPPVRVVGPNPVYACEMLGNMGDAVSEMSDVTRYFYISVVTKPQYSWISACFRDISIVEMHHLNIFAELALLLGADPRLWSCRDCMQWWSPSYIGYPHGVRPLIAESIQAEEAAIRKYSHQADTICDMNIVAILRRIIQDEMYHLQIFREMYQQV	not soluble
MNLQIKHAIFVLGIFLQVQGIKDTSIKIFSSEIKNIDKTPRIETIESTSTVHKVSTMKRIFDLPKLRTKRSALFPAANICPQESLRQILASLQEYYRLRVCQEVVWEAYRIFLDRIPDTEEYQDWVSLCQKETFCLFDIGKNFSNSQEHLDLLQQRIKQRSFPGRKDETASMETLEAPTEAPVVPTDVSRMSLGPFPLPSDDTDLKEILSVTLKDIQKPTTESKTEPIHVSEFSSEEKVEFSISLPNHRFKAELTNSGSPYYQELVGQSQLQLQKIFKKLPGFGEIRVLGFRPKKEEDGSSSTEIQLMAIFKRDHAEAKSPDSHLLSLDSNKIESERIHHGVIEDKQPETYLTATDLKKLIIQLLDGDLSLVEGKIPFGDEVTGTLFRPVTEPDLPKPLADVTEDATLSPELPFVEPRLEAVDREGSELPGMSSKDSSWSPPVSASISRSENLPSFTPSIFSLDAQSPPPLMTTGPTALIPKPTLPTIDYSTIRQLPLESSHWPASSSDRELITSSHDTIRDLDGMDVSDTPALSEISELSGYDSASGQFLEMTTPIPTVRFITTSSETIATKGQELVVFFSLRVANMPFSYDLFNKSSLEYQALEQRFTDLLVPYLRSNLTGFKQLEILSFRNGSVIVNSKVRFAKAVPYNLTQAVRGVLEDLRSTAAQGLNLEIESYSLDIEPADQADPCKLLDCGKFAQCVKNEWTEEAECRCRQGHESHGTLDYQTLNLCPPGKTCVAGREQATPCRPPDHSTNQAQEPGVKKLRQQNKVVKKRNSKLSAIGFEEFEDQDWEGN	soluble
MGSDKIHHHHHHMITASIVTYHHHFKDIRKVIECILSSPVSILYIIDNSSNDRLRELAKISAKIKYIHSVNLGYGAGHNIAIRESIDIGATYHIVVNPDIYFEEGVIEKLIIYMNKYSEVGLVMPRVLYPNGELQYLCKLLPTPFDLLFRRFLPWRRYVEKKNEKYELRFTNYSREMEVPSLSGCFMFVRIAVLKKVGGFDERYFMYAEDLDLCRRIGKVSRTMYYPNVVVYHEYAKGSYKNRRLLRYHLSSVVKYFNKWGWVWDLDRKIINKRILDNLKNV	not soluble
MSISGLFILDLKGNVVISRNYRGDVDMSCIEKFMPLLVEKEDEGSASPVLVHQGISYTYIKYMNVYLVTISKKNTNVILVLSALYKIVEVFCEYFKTLEEEAVRDNFVIIYELFDEMLDFGYPQTTESKILQEFITQQGNRLETVRPPMAVTNAVSWRSEGIKYRKNEVFLDVIESVNMLANAQGTVLRSEIVGSIRFRVVLSGMPELRLGLNDKVFFQQSGASSRRGNSGKGVELEDIKFHQCVRLSRFDSERTISFIPPDGEFELMSYRLTTQVKPLIWVEAAVERHAHSRVEYMVKAKSQFKRQSVANHVEVIIPVPSDVSAPKFKTGAGTAKYVPELNAIVWSIRSFPGGREYIMRSSFMLPSIGSEELEGRPPINVKFEIPYYTTSGLQVRYLKIIEKSGYQALPWVRYVTQNGDYQMRMT	not soluble
MWEANELSSTNTFSHQAEMDWPSANWWQRYQDAQLNHLIEEALQHSPSLCMAMARLKGAQGFARQAGAIRSFDLGLAASATESKVSERYQSATPPDGWNDYGTLTLNFQYDFDFWGKNRAAVVAATSELAAAEAESVAARLMISTSIANAYAELARLYANQETVHAALQVRNKTVELLEKRYANGLETLGSVSQAKAVAASVEAELLGIQESIQLQKNALAALVGQGPDRAASIEEPHITLTSRYGLPSEAGVGLLGHRADITAARWRAEAAAQQVGIAQAQFYPDVTLSAFIGYQAFGLDHLFDSGNDAGAIGPAIYLPLFTGGRLEGQLTSAEARYQEAVAQYNGTLVQALHEIADVVTSSQALQARINKTEQAVQQAEQALHIATNRYQGGLATYLDVLVAEESLLNNQRALVNLQSRAFSLDLALIHALGGGFETTES	soluble
DIESGLYALIGLFATSKTIDLVQVGLNQSKTVFIISENQEAIRQAILFKIDRGITRLSAKGGYTEDDKQILLCVIAQSEFSRLKEVIKEIDPEAFVVVMSASEVMGEGFTS	not soluble
SASAGGEDCESPAPEADRPHQRPFLIGVSGGTASGKSTVCEKIMELLGQNEVEQRQRKVVILSQDRFYKVLTAEQKAKALKGQYNFDHPDAFDNDLMHRTLKNIVEGKTVEVPTYDFVTHSRLPETTVVYPADVVLFEGILVFYSQEIRDMFHLRLFVDTDSDVRLSRRDKEVCRCDHPTRSGQYGCHQPDRAAHPGHSEW	soluble
